Test results from article PMC6218510, “Step Sizes and Rate Constants of Single-headed Cytoplasmic Dynein Measured with Optical Tweezers” (Scientific Reports, 2018).
Each block holds one substance with its values, some of them ahead of it.

How the values were obtained:
[1] = test system: T1, Nc1ncnc2c1ncn2[C@@H]1O[C@H](COP(=O)(O)OP(=O)(O)OP(=O)(O)O)[C@@H](O)[C@H]1O; assay: purified protein; assay type: biochemical, Homo sapiens; settings: basal, no microtubules, 25 °C
T1 construct: motor domain with short tail Gly1288-Glu4646 (384 kDa), N-terminal FLAG tag and BCCP kept; Sf9 baculovirus; monomer

[2] = test system: T1, Nc1ncnc2c1ncn2[C@@H]1O[C@H](COP(=O)(O)OP(=O)(O)OP(=O)(O)O)[C@@H](O)[C@H]1O; assay: optical tweezers, mean displacement of single-headed dynein against ATP; assay type: biochemical, Homo sapiens; settings: with microtubules (paclitaxel), pH 7.2, 25 mM PIPES, 25 mM K-acetate, 2 mM MgCl2, 25 °C, half of power stroke size
[3] = molecular target: microtubules (polymerized tubulin); assay: optical tweezers (single-trap assay); single GST-D384 molecules on a trapped bead, polarity-marked microtubules fixed on glass (amino-silane, glutaraldehyde), trap stiffness 16 fN/nm, 1 mM ATP; duty ratio calculated from the decay of peak force/displacement (run length), (1-rd)^2 = 0.26
Sequence of microtubules (polymerized tubulin) (chain, as listed by the source, chain 1 of 2): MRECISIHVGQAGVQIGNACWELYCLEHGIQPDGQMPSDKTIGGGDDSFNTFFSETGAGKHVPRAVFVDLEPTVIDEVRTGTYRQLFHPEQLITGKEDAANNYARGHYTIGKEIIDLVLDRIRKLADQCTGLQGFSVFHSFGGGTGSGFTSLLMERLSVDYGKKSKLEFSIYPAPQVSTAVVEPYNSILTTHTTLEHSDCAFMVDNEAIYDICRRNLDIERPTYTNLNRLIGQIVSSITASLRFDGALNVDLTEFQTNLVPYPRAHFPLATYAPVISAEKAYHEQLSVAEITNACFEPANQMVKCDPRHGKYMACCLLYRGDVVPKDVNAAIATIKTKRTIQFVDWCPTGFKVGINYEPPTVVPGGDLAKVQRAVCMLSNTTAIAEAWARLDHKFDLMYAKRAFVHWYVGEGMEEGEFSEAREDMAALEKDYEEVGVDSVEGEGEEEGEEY
Sequence of microtubules (polymerized tubulin) (chain, as listed by the source, chain 2 of 2): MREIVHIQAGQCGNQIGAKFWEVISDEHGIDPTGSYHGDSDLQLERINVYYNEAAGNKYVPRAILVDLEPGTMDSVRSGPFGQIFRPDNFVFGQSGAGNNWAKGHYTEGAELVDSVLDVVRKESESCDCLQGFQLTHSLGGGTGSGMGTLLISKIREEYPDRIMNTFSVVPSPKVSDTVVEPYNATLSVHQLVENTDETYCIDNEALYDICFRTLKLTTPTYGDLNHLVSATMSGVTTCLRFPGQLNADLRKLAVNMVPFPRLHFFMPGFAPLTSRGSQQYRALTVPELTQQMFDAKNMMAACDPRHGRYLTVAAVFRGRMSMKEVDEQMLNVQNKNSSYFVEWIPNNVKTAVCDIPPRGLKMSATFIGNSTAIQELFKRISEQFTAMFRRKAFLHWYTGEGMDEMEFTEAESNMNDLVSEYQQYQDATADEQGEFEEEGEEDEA

[4] = molecular target: microtubules (polymerized tubulin); assay: optical tweezers (single-trap assay) + other: in vitro motility assay; duty ratio calculated from the velocity of a single GST-D384 molecule at no load (387 nm/s) and the microtubule gliding velocity (481 nm/s) at 1 mM ATP
[5] = molecular target: microtubules (polymerized tubulin)

Substance: D384 (single-headed human cytoplasmic dynein-1 motor domain) (Homo sapiens)
- Km [1]: 31 ± 4 µM
- K0.5 [2]: 17.6 ± 0.5 µM

- duty ratio rd (fraction of time that each head spends attached to a microtubule) [3]: 0.49
- duty ratio rd (fraction of time that each head spends attached to a microtubule) [4]: 0.59
Substance: artificially dimerized dynein construct GST-D384, Q14204 1288-4646

- Km^MT: Michaelis-Menten constant for microtubules of the microtubule-stimulated ATPase of D384 (EnzChek phosphate assay, 35 nM dynein, 0-25 μM microtubules, 1 mM ATP, 25 °C) [5]: 50 µM
Substance: human cytoplasmic dynein monomer construct D384, Q14204 1288-4646
